From the RNAGym collection of RNA variant scans (doi:10.1093/molbev/msab373)

B1: Azoarcus group I ribozyme (parent)
chain: GUGCCUUGCGCCGGGAAACCACGCAAGGGAUGGUGUCAAAUUCGGCGAAACCUAAGCGCCCGCCCGGGCGUAUGGCAACGCCGAGCCAAGCUUCGGCGCCUGCGCCGAUGAAGGUGUAGAGACUAGACGGCACCCACCUAAGGCAAACGCUAUGGUGAAGGCAUAGUCCAGGGAGUGGCGAAAGUCACACAAACCGG

Variants of: B1
Test: reverse-splicing fitness (ratio to wild type); higher = more active; in vitro selection; Mg2+ level not given
Method in brief: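 An in vitro group I ribozyme library with randomized positions was T7-transcribed and gel-purified. In triplicate, 10 pmol RNA in EPPS pH 7.5 was reacted with 50 pmoles of a 30-nt RNA substrate for 1 h at 37 °C across several added MgCl2 levels (1–48 mM), then stopped with EDTA. Products were reverse transcribed from a substrate-complementary primer, PCR-amplified and sequenced (HiSeq 4000). Fitness is a variant's read proportion after selection over that before, normalised to wild type.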

Row | Variant | reverse-splicing fitness
1 | C82U A111U A120G A145G C169G U176C | 0.027
2 | C82U A111U A120G A145G C169G U176G | 0.00377
3 | C82U A111U A120G A145G C169G U176A | 0.0214
4 | C82U A111U A120U A145C C150U U176C | 0.00469
5 | C82U A111U A120U A145C C150U U176G | 0.0026
6 | C82U A111U A120U A145C C150U U176A | 0.00399
7 | C82U A111U A120G C150G C169A U176A | 0.00906
8 | C82U A111U A120G C150G C169A U176C | 0.00855
9 | C82U A111U A120G C150G C169A U176G | 0.00664
10 | C82U A111U A120G A145C C150U U176A | 0.00859
11 | C82U A111U A120G A145C C150U U176C | 0.00906
12 | C82U A111U A120G A145C C150U U176G | 0.00412
13 | C82U A111U A120G A145G C150U U176A | 0.00911
14 | C82U A111U A120G A145G C150U U176G | 0.00569
15 | C82U A111U A120G A145G C150U U176C | 0.0171
16 | C82U A111U A120G C150G U176A | 0.00524
17 | C82U A111U A120G C150G U176G | 0.00288
18 | C82U A111U A120G C150G U176C | 0.00776
19 | C82U A111U A120G A145U C150A | 0.00808
20 | C82U A111U A120G A145U C150U | 0.0114
21 | C82U A111U A120G A145U C150G | 0.00635

Row | Variant | reverse-splicing fitness
22 | C82U A111U A120G A145U C169A U176C | 0.0101
23 | C82U A111U A120G A145U C169A U176A | 0.0113
24 | C82U A111U A120G A145U C169A U176G | 0.00391
25 | C82U A111U A120G A145G C150G C169A U176C | 0.0113
26 | C82U A111U A120G A145G C150G C169A U176A | 0.0128
27 | C82U A111U A120G A145G C150G C169A U176G | 0.00764
28 | C82U A111U A120U A145C C150G C169U U176C | 0.0022
29 | C82U A111U A120U A145C C150G C169U U176G | 0.00218
30 | C82U A111U A120U A145C C150G C169U U176A | 0.00255
31 | C82U A111U A120G A145C C150G U176C | 0.00719
32 | C82U A111U A120G A145C C150G U176A | 0.00493
33 | C82U A111U A120G A145C C150G U176G | 0.0024
34 | C82U A111U A120U A145G C150G | 0.00817
35 | C82U A111U A120U A145G C150A | 0.00852
36 | C82U A111U A120G C150G C169A | 0.00782
37 | C82U A111U A120G C150G C169U | 0.00755
38 | C82U A111U A120G C150G C169G | 0.00757
39 | C82U A111U A120G A145G C150A U176C | 0.0166
40 | C82U A111U A120G A145G C150A U176A | 0.0093
41 | C82U A111U A120G A145G C150A U176G | 0.00603
42 | C82U A111U A120U A145C C150G C169A U176C | 0.00247

Row | Variant | reverse-splicing fitness
43 | C82U A111U A120U A145C C150G C169A U176G | 0.00281
44 | C82U A111U A120U A145C C150G C169A U176A | 0.00264
45 | C82U A111U A120G C150U C169U U176A | 0.0214
46 | C82U A111U A120G C150U C169U U176C | 0.0158
47 | C82U A111U A120G C150U C169U U176G | 0.00647
48 | C82U A111U A120G A145U C150U C169U | 0.00788
49 | C82U A111U A120G A145U C150U C169G | 0.00885
50 | C82U A111U A120G A145U C150U C169A | 0.00897
51 | C82U A111U A120G A145U C169G U176A | 0.0111
52 | C82U A111U A120G A145U C169G U176C | 0.0121
53 | C82U A111U A120G A145U C169G U176G | 0.00402
54 | C82U A111U A120U A145C C150G U176A | 0.00287
55 | C82U A111U A120U A145C C150G U176G | 0.00213
56 | C82U A111U A120U A145C C150G U176C | 0.00408
57 | C82U A111U A120G C150U U176C | 0.0136
58 | C82U A111U A120G C150U U176G | 0.00537
59 | C82U A111U A120G C150U U176A | 0.0102
60 | C82U A111U A120U A145C C169U U176C | 0.0022
61 | C82U A111U A120U A145C C169U U176A | 0.00247
62 | C82U A111U A120U A145C C169U U176G | 0.00177
63 | C82U A111U A120G A145U C169U | 0.00798

Row | Variant | reverse-splicing fitness
64 | C82U A111U A120G A145U C169A | 0.00696
65 | C82U A111U A120G A145U C169G | 0.00838
66 | C82U A111U A120G A145C U176A | 0.00965
67 | C82U A111U A120G A145C U176C | 0.00925
68 | C82U A111U A120G A145C U176G | 0.00374
69 | C82U A111U A120G A145C C169G U176G | 0.004
70 | C82U A111U A120G A145C C169G U176A | 0.0262
71 | C82U A111U A120G A145C C169G U176C | 0.0149
72 | C82U A111U A120G C150A C169U U176G | 0.00726
73 | C82U A111U A120G C150A C169U U176A | 0.0209
74 | C82U A111U A120G C150A C169U U176C | 0.0171
75 | C82U A111U A120G C150A U176C | 0.0164
76 | C82U A111U A120G C150A U176G | 0.00633
77 | C82U A111U A120G C150A U176A | 0.0114
78 | C82U A111U A120G A145U C150A U176C | 0.0112
79 | C82U A111U A120G A145U C150A U176A | 0.0096
80 | C82U A111U A120G A145U C150A U176G | 0.00425
81 | C82U A111U A120G A145C C150U C169A U176A | 0.0102
82 | C82U A111U A120G A145C C150U C169A U176G | 0.00482
83 | C82U A111U A120G A145C C150U C169A U176C | 0.00544
